Test results as given in patent publication US20250313633A1.

Experiments:
[1] = target: human full-length B7H3 on MCF-7 cells (human) (UniProt Q5ZPR3); test: cell-based or functional assay
[2] = target: human full-length B7H3 on MCF-7 cells (human) (UniProt Q5ZPR3); test: FACS on MCF-7 cells; negative control
[3] = target: cynomolgus monkey B7H3 on transfected FlpinCHO cells (W3XX088-FlpinCHO.cProl.pool) (cynomolgus monkey); test: FACS on cynomolgus monkey B7H3-transfected FlpinCHO cell pool; negative control

Sequence of human full-length B7H3 on MCF-7 cells (human) (Q5ZPR3 29-534): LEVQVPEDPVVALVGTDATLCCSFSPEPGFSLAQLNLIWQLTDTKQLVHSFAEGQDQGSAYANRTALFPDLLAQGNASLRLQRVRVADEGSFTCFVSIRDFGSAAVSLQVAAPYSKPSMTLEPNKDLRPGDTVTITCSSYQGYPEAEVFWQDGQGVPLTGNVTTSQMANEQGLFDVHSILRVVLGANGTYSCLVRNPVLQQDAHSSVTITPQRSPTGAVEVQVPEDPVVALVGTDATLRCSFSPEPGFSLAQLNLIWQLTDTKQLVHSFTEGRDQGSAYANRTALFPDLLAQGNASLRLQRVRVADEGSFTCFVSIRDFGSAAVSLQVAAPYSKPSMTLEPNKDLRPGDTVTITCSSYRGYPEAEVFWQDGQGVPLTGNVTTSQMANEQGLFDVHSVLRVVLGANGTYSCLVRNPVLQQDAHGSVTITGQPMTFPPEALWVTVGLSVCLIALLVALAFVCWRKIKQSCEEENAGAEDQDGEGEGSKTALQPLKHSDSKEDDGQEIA

Internalization on MCF-7, Max MFI [1]: 21 MFI
Max MFI [2]: 47.8 MFI
Max MFI [3]: 6.67 MFI
Substance: Human IgG1 isotype antibody
